# Results reported in patent US20130029395.
# B1: Synechococcus elongatus PCC7942 YP-400611 (Synpcc7942-1594) protein with C-terminal His-tag (protein)
# chain: MFGLIGHLTSLEQARDVSRRMGYDEYADQGLEFWSSAPPQIVDEITVTSATGKVIHGRYIESCFLPEMLAARRFKTATRKVLNAMSHAQKHGIDISALGGFTSIIFENFDLASLRQVRDTTLEFERFTTGNTHTAYVICRQVEAAAKTLGIDITQATVAVVGATGDIGSAVCRWLDLKLGVGDLILTARNQERLDNLQAELGRGKILPLEAALPEADFIVWVASMPQGVVIDPATLKQPCVLIDGGYPKNLGSKVQGEGIYVLNGGVVEHCFDIDWQIMSAAEMARPERQMFACFAEAMLLEFEGWHTNFSWGRNQITIEKMEAIGEASVRHGFQPLALAI
# Target: octadecenoyl-ACP
protein,measurement,value
B1,Km for the reduction of octadecenoyl-ACP in the presence of 2 mM NADPH,7.8 ± 2 µM
